{
  "source": "paper PMC11705820",
  "key": {"[1]": {"biological_target": "T1, MexR Gln55Pro Q55P (Pseudomonas aeruginosa clinical isolate Pae d14 Green) (UniProt P52003)", "T1 sequence": "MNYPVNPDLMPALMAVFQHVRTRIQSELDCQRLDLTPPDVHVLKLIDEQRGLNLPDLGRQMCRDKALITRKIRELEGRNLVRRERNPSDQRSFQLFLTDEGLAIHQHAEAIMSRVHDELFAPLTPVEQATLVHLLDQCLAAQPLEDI", "experiment": "EMSA"}, "[2]": {"biological_target": "T2, MexR wild-type (Pseudomonas aeruginosa clinical isolate Pae d1 Green) (UniProt P52003)", "T2 sequence": "T1 sequence with P55Q", "experiment": "EMSA"}},
  "note": "Positions count from the first letter of the chain named.",
  "data": [
    {"sequence": "GTTGCATAGCGTTGTCCTCATGAGCGAAAGCGGCCGATGCAGCGTGAAGGCGCTGCACCGGCTCGAAGAAGGCAGGCAAAATACTTACATTCATAGGTGTTTGTAAACGTCCGAAAGCCTCGCGTGAAAACACCTGAAACGTTTTAGCTCGATGGCCGGTTATCCACCCGGCGCCATGGCCCATATTCAGAACCTGAAACAAGGTTGATAAGGTCAACTAAAATAAGCAAAATAGTTGACTGGATCAACCACATTTACATTAGGTTTACTCGGCCAAACCAATGAACTACC (double strand) [mexR-mexAB intergenic region 291 bp]", "values": [
      {"measurement": "binding", "setting": "[1]", "result": "no binding"},
      {"measurement": "binding", "setting": "[2]", "result": "binds"}
    ]}
  ]
}
